Source: US20230056252A1 (Gilead, published 2023)
Numbering of substitutions follows the chain as printed.

B1: huSP34.6.6 Fab-HF (Fab, V domains shown)
VH: EVQLVESGGGLVQPGGSLRLSCAASGFTFSTYAMNWVRQAPGKGLEWVGRIRSKYNNYATYYADSVKGRFTISRDNSKNTLYLQMNSLRAEDTAMYYCVRHGNFGNSYVSWFAVWGQGTLVTVSS
VL: QAVVTQPPSLTVSPGGTVTLTCGSSTGAVTTGHYANWVQQKPGQAPRGLIGGTSNRAPGVPARFSGSLSGGKAALTISGAQPEDEAEYYCALWYSARWVFGGGTKLTVL
notes: also called HC6+LC6
B2: huSP34.9.6 Fab-HF (Fab, V domains shown)
VH: B1 VH with T31D, I51T, N57S, D64A, N76D, T80S, R89K, A90T, M95V
VL: B1 VL
notes: also called HC9+LC6
B3: huSP34.10.6 Fab-HF (Fab, V domains shown)
VH: B1 VH with T31D, I51T, N57S, D64A, N76D, T80S, R89K, A90T, M95V, N106H
VL: B1 VL
notes: also called HC10+LC6
B4: huSP34.7.6 Fab-HF (Fab, V domains shown)
VH: B1 VH with T31D, I51T, D64A, N76D, T80S, R89K, A90T, M95V
VL: B1 VL
notes: also called HC7+LC6
B5: huSP34.5.6 Fab-HF (Fab, V domains shown)
VH: B1 VH with M95V, N106H
VL: B1 VL
notes: also called HC5+LC6
B6: huSP34.10.5 Fab-HF (Fab, V domains shown)
VH: B1 VH with T31D, I51T, N57S, D64A, N76D, T80S, R89K, A90T, M95V, N106H
VL: B1 VL with P7E, G59W, V60T, S69L, I77L
notes: also called HC10+LC5
B7: huSP34.9.5 Fab-HF (Fab, V domains shown)
VH: B1 VH with T31D, I51T, N57S, D64A, N76D, T80S, R89K, A90T, M95V
VL: B1 VL with P7E, G59W, V60T, S69L, I77L
notes: also called HC9+LC5
B8: huSP34.10.4 Fab-HF (Fab, V domains shown)
VH: B1 VH with T31D, I51T, N57S, D64A, N76D, T80S, R89K, A90T, M95V, N106H
VL: B1 VL with P7E, G32S, N55K, G59W, V60T, S69L, I77L, R97L
notes: also called HC10+LC4
B9: huSP34.10.2 Fab-HF (Fab, V domains shown)
VH: B1 VH with T31D, I51T, N57S, D64A, N76D, T80S, R89K, A90T, M95V, N106H
VL: B1 VL with P7E, G32S, H33N, G59W, V60T, S69L, I77L, A96N, R97L
notes: also called HC10+LC2
B10: huSP34.10.1 Fab-HF (Fab, V domains shown)
VH: B1 VH with T31D, I51T, N57S, D64A, N76D, T80S, R89K, A90T, M95V, N106H
VL: QAVVTQEPSLTVSPGGTVTLTCRSSTGAVTTSNYANWVQQKPGQAPRGLIGGTNKRAPWTPARFSGSLIGDKAALTLSGAQPEDEAEYYCALWYSNLWVFGGGTKLTVL
notes: also called HC10+LC1
B11: huSP34.3.7 Fab-HF (Fab, V domains shown)
VH: B1 VH with S30N, N76D, T80S, A90T, M95V, N106H, V114Y
VL: B10 VL with S32G, N33H, W59G, T60V, I69L, D71G, L77I
notes: also called HC3+LC7
B12: huSP34.12.7 Fab-HF (Fab, V domains shown)
VH: B1 VH with G49A, D64A, N76D, T80S, A90T, M95V, N106H, V114Y
VL: B10 VL with S32G, N33H, W59G, T60V, I69L, D71G, L77I
notes: also called HC12+LC7
B13: huSP34.12.8 Fab-HF (Fab, V domains shown)
VH: B1 VH with G49A, D64A, N76D, T80S, A90T, M95V, N106H, V114Y
VL: B1 VL with P7E, S54N, N55K, S69L, A96N
notes: also called HC12+LC8
B14: huSP34.11.9 Fab-HF (Fab, V domains shown)
VH: B1 VH with D64A, N76D, T80S, A90T, M95V, N106H, V114Y
VL: B1 VL with S54N, N55K, A96N, R97L
notes: also called HC11+LC9
B15: huSP34.3.9 Fab-HF (Fab, V domains shown)
VH: B1 VH with S30N, N76D, T80S, A90T, M95V, N106H, V114Y
VL: B1 VL with S54N, N55K, A96N, R97L
notes: also called HC3+LC9
B16: huSP34.13.7 Fab-HF (Fab, V domains shown)
VH: B1 VH with D64A, N76D, A90T, M95V, N106H, V114Y
VL: B10 VL with S32G, N33H, W59G, T60V, I69L, D71G, L77I
notes: also called HC13+LC7
B17: huSP34.11.10 Fab-HF (Fab, V domains shown)
VH: B1 VH with D64A, N76D, T80S, A90T, M95V, N106H, V114Y
VL: B1 VL with S54N, N55K, A96N
notes: also called HC11+LC10
B18: huSP34.11.7 Fab-HF (Fab, V domains shown)
VH: B1 VH with D64A, N76D, T80S, A90T, M95V, N106H, V114Y
VL: B10 VL with S32G, N33H, W59G, T60V, I69L, D71G, L77I
notes: also called HC11+LC7
B19: huSP34.12.10 Fab-HF (Fab, V domains shown)
VH: B1 VH with G49A, D64A, N76D, T80S, A90T, M95V, N106H, V114Y
VL: B1 VL with S54N, N55K, A96N
notes: also called HC12+LC10

molecular target: T1, biotinylated CD3 epsilon:delta heterodimer protein (Amsbio AMS.CDD-H52WO) (Homo sapiens (Human), UniProt P07766 23-126; P04234 22-105); assay: BLI (Octet), CD3 on SA sensor, Fab analyte
T1 construct: also called CD3 heterodimer
Experimental: (§1) The CD3 binding kinetics of the purified huSP34 Fabs were determined using OctetRed384 (Pall ForteBio, CA) biolayer interferometry (BLI). […] Streptavidin (SA) coated biosensors tips (Pall ForteBio, CA) were used to capture biotinylated CD3 epsilon: delta heterodimer and typical immobilization levels captured on the SA sensors were 1 nm which approximately translates to 300 ng/ml of captured protein. For kinetic measurements biosensors were first pre-wetted with assay buffer for 10 minutes to remove protective sucrose coating followed by the recommended regeneration conditions for standardization of the biosensor surface for the experiment. In order to load the biosensors with antigen, 300 ng/ml of biotinylated CD3 epsilon: delta heterodimer protein (Amsbio AMS.CDD-H52WO) was immobilized on the SA sensor for 900 seconds. The CD3 loaded biosensors were then blocked with 20 ug/ml biocytin (sigma) for 200 seconds and then dipped into assay buffer containing wells for 200 seconds to remove any non-specific protein or unbound CD3 heterodimer.
(§2) CD3 loaded and biocytin blocked biosensors were then transferred into fresh assay buffer for 200 seconds to collect a baseline read. Kinetic measurements for anti-CD3 Fab and bispecific antibody binding were performed by dipping the CD3-coated biosensors into wells containing multiple concentrations of Fab or Ab (0-300 nM) for 100 seconds followed by a 300 second dissociation time by transferring the biosensors into assay buffer containing wells. The CD3 loaded sensors were then regenerated for the next kinetic measurement. Biosensors were generated by removing bound Fabs or Ab from immobilized CD3 on SA biosensors. Regeneration conditions used consisted of 3 cycles of 5 seconds of dipping the biosensors in Regeneration Buffer (10 mM Glycine HCl pH 1.5) followed by Assay Buffer (10 mM sodium phosphate pH 7.4, 140 mM Sodium Chloride, 0.005% Tween20 with 0.2% BSA).

Point of comparison: B5, Kd 268 nM. Against it:
- B1 — 3.6-fold lower, 75 nM
- B2 — within 1.5-fold, 289 nM
- B3 — within 1.5-fold, 314 nM
- B4 — 1.6-fold higher, 425 nM
- B6 — within 1.5-fold, 222 nM
- B9 — within 1.5-fold, 307 nM

Point of comparison: B3, koff 0.157 s⁻¹. Against it:
- B1 — 5.4-fold lower, 0.0292 s⁻¹
- B2 — within 1.5-fold, 0.169 s⁻¹
- B4 — within 1.5-fold, 0.17 s⁻¹
- B5 — 2.1-fold lower, 0.0746 s⁻¹
- B6 — 1.9-fold lower, 0.0827 s⁻¹
- B9 — 2.4-fold lower, 0.0664 s⁻¹

Point of comparison: B2, kon 582000 M⁻¹ s⁻¹. Against it:
- B1 — within 1.5-fold, 464000 M⁻¹ s⁻¹
- B4 — within 1.5-fold, 403000 M⁻¹ s⁻¹
- B5 — 2.1-fold lower, 280000 M⁻¹ s⁻¹
- B9 — 2.6-fold lower, 225000 M⁻¹ s⁻¹

B7: no binding (tested: 0-300 nM).
B8: no binding (tested: 0-300 nM).
B10: no binding (tested: 0-300 nM).

molecular target: T1, biotinylated CD3 epsilon:delta …; assay: BLI (Octet), CD3 on SA sensor, Fab analyte; remark: another data set of the same source
Experimental: as §1, §2

Point of comparison: B16, Kd 2.8 nM. Against it:
- B11 — 2-fold higher, 5.6 nM
- B12 — within 1.5-fold, 2.7 nM
- B13 — within 1.5-fold, 3.4 nM
- B14 — within 1.5-fold, 3.4 nM
- B15 — within 1.5-fold, 3.5 nM
- B17 — the same, 2.8 nM
- B18 — within 1.5-fold, 3.6 nM
- B19 — 1.5-fold higher, 4.2 nM

Point of comparison: B18, koff 0.00212 s⁻¹. Against it:
- B11 — within 1.5-fold, 0.00168 s⁻¹
- B12 — within 1.5-fold, 0.00244 s⁻¹
- B13 — within 1.5-fold, 0.00166 s⁻¹
- B14 — within 1.5-fold, 0.00284 s⁻¹
- B15 — within 1.5-fold, 0.00221 s⁻¹
- B16 — within 1.5-fold, 0.00275 s⁻¹
- B17 — within 1.5-fold, 0.00192 s⁻¹
- B19 — within 1.5-fold, 0.00205 s⁻¹

Point of comparison: B19, kon 501000 M⁻¹ s⁻¹. Against it:
- B11 — 1.6-fold lower, 323000 M⁻¹ s⁻¹
- B12 — 1.9-fold higher, 966000 M⁻¹ s⁻¹
- B13 — within 1.5-fold, 493000 M⁻¹ s⁻¹
- B14 — 1.8-fold higher, 898000 M⁻¹ s⁻¹
- B15 — within 1.5-fold, 632000 M⁻¹ s⁻¹
- B16 — 2-fold higher, 1.01e+06 M⁻¹ s⁻¹
- B17 — within 1.5-fold, 697000 M⁻¹ s⁻¹
- B18 — within 1.5-fold, 613000 M⁻¹ s⁻¹
